Reference: PMC2440032, “Odorranalectin Is a Small Peptide Lectin with Potential for Drug Delivery and Targeting” (PLoS ONE, 2008)
Positions of bridges follow the written chain, without caps; N, C: chain ends. Residues, ends and D or L forms follow the SMILES beside them. No end group written: not given here.

Key:
[1] = Stability of 125I-odorranalectin in mice plasma in vitro; format: in vitro ADME; conditions: mice plasma 100% (v/v) and 50% in PBS pH 7.4, 5 µCi, 37 °C, sampled 0-5 h; radiochemical purity by silica gel paper chromatography and HPLC with radioactive detector
Description: In order to evaluate the stability of ^125I- odorranalectin in vitro, a degradation experiment of ^125I-odorranalectin in mice plasma was performed. The details are provided in the supplementary materials (Materials and Methods S1).
Stability of ^125I-odorranalectin in vitro. In order to evaluate the stability of ^125I- odorranalectin in vitro, a degradation experiment of ^125I-odorranalectin in mice plasma was performed. Briefly, 5 µCi ^125I-odorranalectin (about 10 µl) was added to 790 µl plasma (100%, v/v) freshly prepared and 400 µL plasma (50%) admixed with 390 µl PBS (pH 7.4) in two 1.5-ml centrifuge tubes, respectively, which maintained at 37 °C in a rolling water-bath incubator. Then at each time point (0, 1, 2, 3, 4 and 5 h), a glass microcap was used to take samples for silica gel paper chromatography (SGPC) analysis and high-performance liquid chromatography (HPLC) for calculating the radiochemical purity of ^125I-odorranalectin. In detail, the developing agent of SGPC was methanol: water = 85:15 (v/v); After spotted and the solvent reached the frontier, the silica gel paper strip was dried and cut to ten equations (Fig. S3 and Table S7), and then set in 10 tubes, following determined radiocounting of each piece in a SN-695 Intellectual Radio-immunity γ Measurement (Shanghai Institute of Nuclear Research Ri Huan Instrument Factory, China), respectively. […]

human erythrocytes = assay: Erythrocytes hemagglutination; format: cell-based; conditions: blood group not named
[2] = SPR, odorranalectin and its mutants binding L-fucose; conditions: peptide immobilized, L-fucose as analyte, NA = no binding to L-fucose, read-out: binding affinity (KD)
Description: Real time detection of odorranalectin and its mutants binding to glycoproteins and L-fucose was recorded by using a Biacore 3000 [21]–[24]. The details are provided in the supplementary materials (Materials and Methods S1).
SPR Analysis. Real time detection of odorranalectin and its mutants binding to glycoproteins and L-fucose was recorded by using a Biacore 3000 [21-24]. Odorranalectin was immobilized covalently via their primary amines to carboxyl groups within a dextran layer on the sensor chip CM-5 according to the manufacturer’s specifications. After chip activation with 0.4 M 1-ethyl-3- (3-dimethylaminopropyl) carbodiimide hydrochloride and 10 mM N-hydroxysuccinimide, odorranalectin or its mutants (in 10 mM sodium acetate buffer, pH 4.0) at a concentration of 100 μg/ml was passed through the flow cells at a rate of 5 μl/min. After immobilization, the chip was capped by exposure to 1 M ethanolamine (pH 8.5).
All analyses were performed at a flow rate of 30 μl/min. Before loading of analytes, the chip was equilibrated with 10 mM HEPES-buffered saline containing 3 mM EDTA and 0.005% surfactant P-20, pH 7.4 (HBS-EP). […]
Association and dissociation rate constants (ka and kd) were calculated by using BIA evaluation 4.0 software (Biacore AB, Sweden). The affinity constant (KD) was calculated from the ka and kd. […]

[3] = Tissue distribution of 125I-odorranalectin in vivo; design: species or system KM mice; conditions: 400 µCi·kg^-1, mice, 5-300 min, Mean ± SD, n=3
Description: Sixty-three female KM mice (18∼22 g) were grouped randomly into three groups receiving oral, intravenous and intranasal administration of ^125I-odorranalectin at equal radiation dose (400 µCi·kg^−1), respectively. The detail procedures are provided in the supplementary materials (Materials and Methods S1).
(§1) Each experiment was carried out in triplicate. Values are given as means±SD. All the concentration data were plotted directly as radiocounting-time curves of the blood and tissues, and the area under the curve (AUC0→t) was calculated by the trapezoidal rule. The statistical differences between per oral or intranasal administrations and intravenous administration were assessed using student's t test and P<0.05 as statistical significance.
Tissue distribution of ^125I-odorranalectin in vivo. Sixty-three female KM mice (18~22 g) were grouped randomly to three groups receiving oral, intravenous and intranasal administration at equal radiation dose (400 µCi·kg^-1), respectively. The procedure for intranasal administration was performed gently and slowly so as to allow the mice to inhale all of the preparations (each nostril 10 µl). At different time intervals (5, 15, 30, 60, 120, 180 and 300 min) following administration, blood sample was collected via eye puncture; subsequently, the mice were humanly sacrificed, and tissues such as heart, liver, spleen, lung, stomach (content removed), kidney and brain were harvested and stuffed into a special tube after the remnant blood was blotted by tissue paper, following weighing, respectively. Finally, the radiocounting of each tissue was determined in a SN-695 Intellectual Radio-immunity γ Measurement to evaluate odorranalectin intake.
as §1, with “Data analysis. Each” for “Each”, “means ± SD.” for “means±SD.”, “under” for “under the”, “student’s” for “student's”, “P< 0.05” for “P<0.05”

CC(C)C[C@@H]1NC(=O)[C@H](C(C)C)NC(=O)CNC(=O)[C@H](CC(N)=O)NC(=O)[C@@H]2CCCN2C(=O)[C@H](Cc2ccc(O)cc2)NC(=O)[C@H](CCCNC(=N)N)NC(=O)[C@H](Cc2ccccc2)NC(=O)[C@@H](NC(=O)[C@H](CCCCN)NC(=O)[C@@H]2CCCN2C(=O)[C@H](CO)NC(=O)[C@H](C)NC(=O)[C@@H](N)Cc2ccc(O)cc2)CSSC[C@@H](C(=O)N[C@H](C(=O)O)[C@@H](C)O)NC(=O)[C@H](C)NC1=O [odorranalectin] (HELM PEPTIDE1{Y.A.S.P.K.C.F.R.Y.P.N.G.V.L.A.C.T}$PEPTIDE1,PEPTIDE1,6:R3-16:R3$$$V2.0)
Time of stability in mice plasma [1]: more than 5 hours | minimum concentration (MIC) to agglutinate intact human erythrocytes (human erythrocytes): 0.75 µg/mL

YASPGGFRYPNGVLACT [Odorranalectin T17/G17]
Kd [2]: 8.2 mM

^125I-odorranalectin: odorranalectin labeled by 125I with iodogen method (YASPKCFRYPNGVLACT; disulfide 6-16; ends not checked; also: 125I on a tyrosine, which one is not given here)
Time of stability in mice plasma [1]: at least 5 hours | AUC Blood ([3]; in (intranasal)): 6.77±3.05 *10^7 CPM·min | AUC Brain ([3]; in (intranasal)): 0.36±0.15 *10^7 CPM·min | AUC Heart ([3]; in (intranasal)): 2.88±1.16 *10^7 CPM·min | AUC Kideny ([3]; in (intranasal)): 5.17±2.10 *10^7 CPM·min | AUC Liver ([3]; in (intranasal)): 3.53±1.50 *10^7 CPM·min | AUC Lung ([3]; in (intranasal)): 12.50±3.77 *10^7 CPM·min | AUC Spleen ([3]; in (intranasal)): 4.48±1.86 *10^7 CPM·min | AUC Stomach ([3]; in (intranasal)): 125.61±44.28 *10^7 CPM·min | AUC Blood ([3]; iv): 5.41±1.11 *10^7 CPM·min | AUC Brain ([3]; iv): 0.46±0.047 *10^7 CPM·min | AUC Heart ([3]; iv): 3.37±0.51 *10^7 CPM·min | AUC Kideny ([3]; iv): 8.47±1.41 *10^7 CPM·min | AUC Liver ([3]; iv): 98.51±6.22 *10^7 CPM·min | AUC Lung ([3]; iv): 246.41±62.56 *10^7 CPM·min | AUC Spleen ([3]; iv): 64.82±8.61 *10^7 CPM·min | AUC Stomach ([3]; iv): 20.90±3.09 *10^7 CPM·min | AUC Blood ([3]; po): 4.89±0.69 *10^7 CPM·min | AUC Brain ([3]; po): 0.25±0.024 *10^7 CPM·min | AUC Heart ([3]; po): 1.99±0.24 *10^7 CPM·min | AUC Kideny ([3]; po): 3.84±0.76 *10^7 CPM·min | AUC Liver ([3]; po): 2.42±0.29 *10^7 CPM·min | AUC Lung ([3]; po): 4.02±0.51 *10^7 CPM·min | AUC Spleen ([3]; po): 3.60±0.35 *10^7 CPM·min | AUC Stomach ([3]; po): 126.64±32.27 *10^7 CPM·min
